Data reported in publication PMC9482650, “Quantitative fragmentomics allow affinity mapping of interactomes” (Nature Communications, 2022).

Legend:
Test in all cases: holdup assay
Parameters in all cases: key: below the threshold = too weak to quantify, mostly under pKd 3.1 to 4
Details in all cases: plain residues with an end cap or a label only (N-terminal biotin on a linker: ado-ado)
[1] = target: T1, MPDZ_5, O75970
T1 sequence (O75970 695-796, limits assumed, looked up): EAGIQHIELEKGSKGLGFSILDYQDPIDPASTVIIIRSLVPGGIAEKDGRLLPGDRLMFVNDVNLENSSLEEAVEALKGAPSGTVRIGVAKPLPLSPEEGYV

[2] = target: T2, DFNB31_1, Q9P202
T2 sequence (Q9P202 135-233, limits assumed, looked up): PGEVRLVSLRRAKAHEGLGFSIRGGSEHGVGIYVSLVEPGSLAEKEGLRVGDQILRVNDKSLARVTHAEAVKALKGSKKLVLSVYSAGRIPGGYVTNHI

[3] = target: T3, APBA1_1, Q02410
T3 sequence (Q02410 651-752, limits assumed, looked up): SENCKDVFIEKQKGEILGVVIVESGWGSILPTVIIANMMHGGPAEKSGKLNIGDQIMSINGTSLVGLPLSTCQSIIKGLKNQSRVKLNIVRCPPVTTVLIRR

[4] = target: GORASP2, Q9H8Y8
[5] = target: DLG4_1, P78352
[6] = target: CASK, O14936
[7] = target: LNX1_2, Q8TBB1
[8] = target: LNX1_1, Q8TBB1
[9] = target: TJP1_3, Q07157
[10] = target: T4, SNTB1, Q13884
T4 sequence (Q13884 107-205, limits assumed, looked up): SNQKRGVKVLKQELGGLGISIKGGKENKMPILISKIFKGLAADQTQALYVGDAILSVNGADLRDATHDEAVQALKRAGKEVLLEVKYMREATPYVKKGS

[11] = target: T5, GRIP1_2, Q9Y3R0
T5 sequence (Q9Y3R0 145-248, limits assumed, looked up): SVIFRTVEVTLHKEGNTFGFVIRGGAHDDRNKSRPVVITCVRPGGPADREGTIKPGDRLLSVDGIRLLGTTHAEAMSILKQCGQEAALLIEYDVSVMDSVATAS

[12] = target: T6, NHERF3_3, Q5T2W1
T6 sequence (Q5T2W1 238-333, limits assumed, looked up): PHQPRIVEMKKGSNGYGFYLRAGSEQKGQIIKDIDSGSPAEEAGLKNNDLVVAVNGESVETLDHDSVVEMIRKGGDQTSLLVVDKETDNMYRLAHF

[13] = target: T7, DLG3_3, Q92796
T7 sequence (Q92796 374-475, limits assumed, looked up): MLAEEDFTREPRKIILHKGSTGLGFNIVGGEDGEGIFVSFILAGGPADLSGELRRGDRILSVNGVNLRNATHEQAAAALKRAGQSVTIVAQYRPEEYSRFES

[14] = target: IL16_3, Q14005
[15] = target: GOPC, Q9HD26
[16] = target: GRID2IP_2, A4D2P6
[17] = target: T8, MPP2, Q14168
T8 sequence (Q14168 180-250, limits assumed, looked up): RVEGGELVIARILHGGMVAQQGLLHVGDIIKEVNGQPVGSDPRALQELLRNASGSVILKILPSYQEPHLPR

[18] = target: IL16_1, Q14005
[19] = target: T9, GRIP1_5, Q9Y3R0
T9 sequence (Q9Y3R0 568-668, limits assumed, looked up): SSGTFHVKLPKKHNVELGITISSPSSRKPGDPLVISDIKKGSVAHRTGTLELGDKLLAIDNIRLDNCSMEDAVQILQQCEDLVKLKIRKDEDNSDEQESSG

[20] = target: FRMPD4, Q14CM0
[21] = target: T10, APBA2_1, Q99767
T10 sequence (Q99767 563-664, limits assumed, looked up): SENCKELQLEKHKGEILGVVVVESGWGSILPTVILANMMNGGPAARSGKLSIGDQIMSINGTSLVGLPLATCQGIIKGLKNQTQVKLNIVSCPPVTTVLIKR

[22] = target: NHERF4_4, Q86UT5
[23] = target: DLG1_3, Q12959
[24] = target: T11, APBA2_2, Q99767
T11 sequence (Q99767 654-744, limits assumed, looked up): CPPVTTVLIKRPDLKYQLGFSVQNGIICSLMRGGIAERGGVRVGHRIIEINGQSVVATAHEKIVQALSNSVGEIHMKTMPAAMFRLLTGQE

[25] = target: DLG1_2, Q12959
[26] = target: T12, ARHGEF11, O15085
T12 sequence (O15085 42-136, limits assumed, looked up): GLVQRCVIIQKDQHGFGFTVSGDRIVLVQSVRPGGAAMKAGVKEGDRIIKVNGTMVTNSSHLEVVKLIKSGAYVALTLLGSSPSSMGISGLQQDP

DLG1_2, Q12959, sequence (Q12959 314-412): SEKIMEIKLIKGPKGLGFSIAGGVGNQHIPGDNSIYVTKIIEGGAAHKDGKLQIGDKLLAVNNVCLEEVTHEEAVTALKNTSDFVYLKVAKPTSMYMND
DLG4_1, P78352, sequence (P78352 62-152): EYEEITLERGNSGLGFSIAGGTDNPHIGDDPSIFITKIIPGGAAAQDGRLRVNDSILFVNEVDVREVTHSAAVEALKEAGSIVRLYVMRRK
GRID2IP_2, A4D2P6, sequence (A4D2P6 272-370): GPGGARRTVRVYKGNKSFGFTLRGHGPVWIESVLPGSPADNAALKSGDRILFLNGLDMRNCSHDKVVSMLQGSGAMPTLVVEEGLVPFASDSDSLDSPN
IL16_1, Q14005, sequence (Q14005 210-306): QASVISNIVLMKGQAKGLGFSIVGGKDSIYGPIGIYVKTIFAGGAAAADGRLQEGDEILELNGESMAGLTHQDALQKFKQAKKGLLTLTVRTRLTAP
IL16_3, Q14005, sequence (Q14005 1107-1207): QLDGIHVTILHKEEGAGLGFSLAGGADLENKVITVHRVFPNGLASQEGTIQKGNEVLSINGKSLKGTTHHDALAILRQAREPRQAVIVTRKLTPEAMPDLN
LNX1_1, Q8TBB1, sequence (Q8TBB1 261-371): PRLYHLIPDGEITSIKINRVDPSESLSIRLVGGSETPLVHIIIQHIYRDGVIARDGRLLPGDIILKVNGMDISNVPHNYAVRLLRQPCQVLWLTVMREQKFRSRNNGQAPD
DLG1_3, Q12959, sequence (Q12959 457-571): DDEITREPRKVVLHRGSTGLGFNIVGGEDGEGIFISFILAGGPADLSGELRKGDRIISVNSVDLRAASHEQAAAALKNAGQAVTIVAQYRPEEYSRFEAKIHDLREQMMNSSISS
TJP1_3, Q07157, sequence (Q07157 416-512): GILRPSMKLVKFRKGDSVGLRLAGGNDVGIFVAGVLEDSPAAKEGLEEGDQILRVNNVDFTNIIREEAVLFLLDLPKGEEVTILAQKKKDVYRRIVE
NHERF4_4, Q86UT5, sequence (Q86UT5 464-550): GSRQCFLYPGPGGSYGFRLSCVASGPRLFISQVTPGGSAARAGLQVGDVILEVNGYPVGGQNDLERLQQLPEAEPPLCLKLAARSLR
CASK, O14936, sequence (O14936 487-570): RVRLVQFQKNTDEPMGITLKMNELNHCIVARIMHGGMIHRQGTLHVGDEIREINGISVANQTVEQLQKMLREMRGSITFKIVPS
LNX1_2, Q8TBB1, sequence (Q8TBB1 371-470): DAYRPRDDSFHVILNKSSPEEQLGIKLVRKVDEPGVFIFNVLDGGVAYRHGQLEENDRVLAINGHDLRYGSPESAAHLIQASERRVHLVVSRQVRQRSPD
FRMPD4, Q14CM0, sequence (Q14CM0 67-160): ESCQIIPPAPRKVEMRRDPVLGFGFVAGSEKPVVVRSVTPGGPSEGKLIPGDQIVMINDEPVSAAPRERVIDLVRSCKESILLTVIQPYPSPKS

Binder | pKd [1] | pKd [2] | pKd [3] | pKd [4] | pKd [5] | pKd [6] | pKd [7] | pKd [8] | pKd [9] | pKd [10] | pKd [11] | pKd [12] | pKd [13] | pKd [14] | pKd [15] | pKd [16] | pKd [17] | pKd [18] | pKd [19] | pKd [20] | other results
RELVMRVTTV [MARCHF4, Q9P2E8] | below the threshold | 3.97 | below the threshold | 5.54 | 5.03 | below the threshold | 4.58 | 3.98 | below the threshold | 5.11 | below the threshold | below the threshold | 4.63 | below the threshold | 5.03 | 4.06 | below the threshold | 4.33 | below the threshold | below the threshold | pKd [21]: below the threshold; pKd [22]: below the threshold; pKd [23]: 5.12; pKd [24]: below the threshold; pKd [25]: 5.41; pKd [26]: 4.71
PAPGQHTTQI [STK16, O75716] | below the threshold | 4.57 | below the threshold | 3.54 | below the threshold | below the threshold | below the threshold | below the threshold | below the threshold | 3.57 | below the threshold | below the threshold | below the threshold | below the threshold | 3.77 | 3.98 | below the threshold | below the threshold | below the threshold | below the threshold | pKd [21]: below the threshold; pKd [22]: below the threshold; pKd [23]: 3.71; pKd [24]: below the threshold; pKd [25]: 3.73; pKd [26]: below the threshold
PASAKGPLGV [CLDN19, Q8N6F1] | below the threshold | below the threshold | below the threshold | below the threshold | below the threshold | below the threshold | below the threshold | below the threshold | below the threshold | below the threshold | below the threshold | below the threshold | below the threshold | below the threshold | below the threshold | below the threshold | below the threshold | below the threshold | below the threshold | below the threshold | pKd [21]: below the threshold; pKd [22]: below the threshold; pKd [23]: below the threshold; pKd [24]: below the threshold; pKd [25]: below the threshold; pKd [26]: below the threshold
DSATVRTYSC [PPFIA1, Q13136] | below the threshold | 3.47 | below the threshold | 3.62 | below the threshold | below the threshold | 4.83 | below the threshold | below the threshold | below the threshold | below the threshold | below the threshold | below the threshold | below the threshold | below the threshold | 3.49 | below the threshold | below the threshold | below the threshold | 3.8 | pKd [21]: below the threshold; pKd [22]: below the threshold; pKd [23]: below the threshold; pKd [24]: below the threshold; pKd [25]: below the threshold; pKd [26]: 3.66
QFTLRHWLKV [SLC6A3, Q01959] | below the threshold | 3.47 | below the threshold | 4.56 | below the threshold | below the threshold | 3.84 | below the threshold | below the threshold | below the threshold | below the threshold | below the threshold | below the threshold | below the threshold | 3.51 | below the threshold | 3.87 | below the threshold | below the threshold | below the threshold | pKd [21]: 3.48; pKd [22]: 3.65; pKd [23]: below the threshold; pKd [24]: below the threshold; pKd [25]: below the threshold; pKd [26]: below the threshold
